Experimental data from US20120122214A1.

Target: bovine serum albumin (bovine) (UniProt P02769)
Test: flow cytometry; iPS-MP in suspension with control fluorescent particles coated with only albumin, 37° C., 90 minutes

Sequence of bovine serum albumin (bovine) (P02769 25-607 limits assumed): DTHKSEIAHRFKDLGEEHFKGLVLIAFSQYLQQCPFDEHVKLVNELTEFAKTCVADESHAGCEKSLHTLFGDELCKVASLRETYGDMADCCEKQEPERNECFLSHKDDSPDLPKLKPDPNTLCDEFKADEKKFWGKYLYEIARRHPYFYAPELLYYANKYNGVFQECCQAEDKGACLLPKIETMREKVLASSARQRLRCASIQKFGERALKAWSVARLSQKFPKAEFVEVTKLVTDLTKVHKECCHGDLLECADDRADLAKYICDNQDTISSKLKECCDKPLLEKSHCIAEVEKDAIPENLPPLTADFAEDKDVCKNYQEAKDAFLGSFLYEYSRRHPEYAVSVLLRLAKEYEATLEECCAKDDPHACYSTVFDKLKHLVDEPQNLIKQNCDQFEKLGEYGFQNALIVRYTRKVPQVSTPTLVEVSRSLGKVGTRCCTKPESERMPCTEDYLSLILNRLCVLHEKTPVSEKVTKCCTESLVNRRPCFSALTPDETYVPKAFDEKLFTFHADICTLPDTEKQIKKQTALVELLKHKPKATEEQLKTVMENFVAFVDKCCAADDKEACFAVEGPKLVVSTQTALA

mean fluorescence intensity: 781
percent of cells bound to the beads: 25.5%
Substance: single-chain antibody (scFv) recognizing human β-amyloid peptide, derived from mouse hybridoma clone 3D6, fused to mouse IgG2a Fc portion and mouse Fc receptor (FcγRI) trans-cell membrane-cytoplasm portion, expressed on iPS-MP
